Measured values reported in publication doi:10.1101/2025.05.22.655678.
Where a chain is given by its changes, count along the chain named. Names and notes keep the numbering of the source. Like-named read-outs stand apart in the source and are kept apart here.

B1: 60bp-3 (dsDNA)
DNA 1: GCCTTCCCCATTATGATTCTTCTCGCTTCCGGCGGCATCGGGATGCCCGCGTTGCAGGCC
DNA 2: GGCCTGCAACGCGGGCATCCCGATGCCGCCGGAAGCGAGAAGAATCATAATGGGGAAGGC
modifications: N6-methyladenine in any context (M.EcoGII)
B2: 60bp-4 (dsDNA)
DNA 1: GGATGCCCGCGTTGCAGGCCATGCTGTCCAGGCAGGTAGATGACGACCATCAGGGACAGC
DNA 2: GCTGTCCCTGATGGTCGTCATCTACCTGCCTGGACAGCATGGCCTGCAACGCGGGCATCC
modifications: N6-methyladenine in any context (M.EcoGII)
B3: 60bp-2-V (dsDNA)
DNA 1: GGGCTACGTCTTGCTGGCGTTCGCGACTTTTTGCTGGATGGCCTTCCCCATTATGATTCT
DNA 2: AGAATCATAATGGGGAAGGCCATCCAGCAAAAAGTCGCGAACGCCAGCAAGACGTAGCCC
modifications: N6-methyladenine in any context (M.EcoGII)
B4: GCAAG (dsDNA)
DNA 1: B3 DNA 1 with T28G, T29C, T30A, T31A, T32G
DNA 2: B3 DNA 2 with A29C, A30T, A31T, A32G, A33C
modifications: N6-methyladenine in any context (M.EcoGII)
B5: GCTAG (dsDNA)
DNA 1: B3 DNA 1 with T28G, T29C, T31A, T32G
DNA 2: B3 DNA 2 with A29C, A30T, A32G, A33C
modifications: N6-methyladenine in any context (M.EcoGII)
B6: GGGAG (dsDNA)
DNA 1: B3 DNA 1 with T28G, T29G, T30G, T31A, T32G
DNA 2: B3 DNA 2 with A29C, A30T, A31C, A32C, A33C
modifications: N6-methyladenine in any context (M.EcoGII)
B7: GCCAG (dsDNA)
DNA 1: B3 DNA 1 with T28G, T29C, T30C, T31A, T32G
DNA 2: B3 DNA 2 with A29C, A30T, A31G, A32G, A33C
modifications: N6-methyladenine in any context (M.EcoGII)
B8: 60bp-2 (dsDNA)
DNA 1: B3 DNA 1 with T28G, T29C, T30G, T31A, T32G
DNA 2: B3 DNA 2 with A29C, A30T, A31C, A32G, A33C
modifications: N6-methyladenine in any context (M.EcoGII)
B9: GTGAG (dsDNA)
DNA 1: B3 DNA 1 with T28G, T30G, T31A, T32G
DNA 2: B3 DNA 2 with A29C, A30T, A31C, A33C
modifications: N6-methyladenine in any context (M.EcoGII)
B10: GAGAG (dsDNA)
DNA 1: B3 DNA 1 with T28G, T29A, T30G, T31A, T32G
DNA 2: B3 DNA 2 with A29C, A30T, A31C, A32T, A33C
modifications: N6-methyladenine in any context (M.EcoGII)
B11: CCGAG (dsDNA)
DNA 1: B3 DNA 1 with T28C, T29C, T30G, T31A, T32G
DNA 2: B3 DNA 2 with A29C, A30T, A31C, A32G, A33G
modifications: N6-methyladenine in any context (M.EcoGII)
B12: GCGAC (dsDNA)
DNA 1: B3 DNA 1 with T28G, T29C, T30G, T31A, T32C
DNA 2: B3 DNA 2 with A29G, A30T, A31C, A32G, A33C
modifications: N6-methyladenine in any context (M.EcoGII)
B13: GCGAT (dsDNA)
DNA 1: B3 DNA 1 with T28G, T29C, T30G, T31A
DNA 2: B3 DNA 2 with A30T, A31C, A32G, A33C
modifications: N6-methyladenine in any context (M.EcoGII)
B14: GCGAA (dsDNA)
DNA 1: B3 DNA 1 with T28G, T29C, T30G, T31A, T32A
DNA 2: B3 DNA 2 with A29T, A30T, A31C, A32G, A33C
modifications: N6-methyladenine in any context (M.EcoGII)
B15: TCGAG (dsDNA)
DNA 1: B3 DNA 1 with T29C, T30G, T31A, T32G
DNA 2: B3 DNA 2 with A29C, A30T, A31C, A32G
modifications: N6-methyladenine in any context (M.EcoGII)
B16: 60bp-5 (dsDNA)
DNA 1: TGACGACCATCAGGGACAGCTTCAAGGATCGCTCGCGGCTCTTACCAGCCTAACTTCGAT
DNA 2: ATCGAAGTTAGGCTGGTAAGAGCCGCGAGCGATCCTTGAAGCTGTCCCTGATGGTCGTCA
modifications: N6-methyladenine in any context (M.EcoGII)
B17: 59bp-GAG (dsDNA)
DNA 1: TTTTTTTTTTTTTTTTTTTTTTTTTTTTGAGTTTTTTTTTTTTTTTTTTTTTTTTTTTT
DNA 2: AAAAAAAAAAAAAAAAAAAAAAAAAAAACTCAAAAAAAAAAAAAAAAAAAAAAAAAAAA
modifications: N6-methyladenine at A of GAG (position 30, printed M6A); legend says M.EcoGII-methylated
B18: ss-59nt-GAG (ssDNA)
DNA: B17 DNA 1
modifications: N6-methyladenine at A of GAG (position 30)
B19: 60bp-1 (dsDNA)
DNA 1: AGAAGCAGGCCATTATCGCCGGCATGGCGGCCGACGCGCTGGGCTACGTCTTGCTGGCGT
DNA 2: ACGCCAGCAAGACGTAGCCCAGCGCGTCGGCCGCCATGCCGGCGATAATGGCCTGCTTCT
modifications: N6-methyladenine in any context (M.EcoGII)
B20: 60bp-7 (dsDNA)
DNA 1: CGGCGATTTATGCCGCCTCGGCGAGCACATGGAACGGGTTGGCATGGATTGTAGGCGCCG
DNA 2: CGGCGCCTACAATCCATGCCAACCCGTTCCATGTGCTCGCCGAGGCGGCATAAATCGCCG
modifications: N6-methyladenine in any context (M.EcoGII)
B21: 60bp-7-V (dsDNA)
DNA 1: B20 DNA 1 with G21T, C22T, G23T, A24T, G25T
DNA 2: B20 DNA 2 with C36A, T37A, C38A, G39A, C40A
modifications: N6-methyladenine in any context (M.EcoGII)

Assays:
[1] = biological target: T1, VchI (Vibrio cholerae); assay: EMSA
T1 chain: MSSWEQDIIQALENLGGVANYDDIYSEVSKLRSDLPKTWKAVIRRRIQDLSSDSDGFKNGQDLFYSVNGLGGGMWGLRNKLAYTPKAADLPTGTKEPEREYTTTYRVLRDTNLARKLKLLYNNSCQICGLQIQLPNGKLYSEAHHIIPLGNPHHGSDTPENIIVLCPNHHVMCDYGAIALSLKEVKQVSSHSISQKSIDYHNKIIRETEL

[2] = biological target: T1, VchI; assay: EMSA

Binder | binding result [1] | binding result [2]
B1 | binds | 
B2 | no binding | 
B3 |  | no binding
B4 |  | no binding
B5 |  | no binding
B6 |  | binds
B7 |  | no binding
B8 | binds | 
B9 |  | binds
B10 |  | binds
B11 |  | binds
B12 |  | no binding
B13 |  | no binding
B14 |  | no binding
B15 |  | binds
B16 | binds | 
B17 |  | binds
B18 |  | no binding
B19 | no binding | 
B20 | binds | 
B21 |  | binds
